Assay: SEC

**Q.** Which “percent trimers in solution (Gaussian fit of the SEC curve)” value does the source give for “CD95L-IZ-His (His8-TEV-Cys-IZ-CD95L (137-281), secreted form)” here?
**A.** occurs in a trimeric state (i.e. 62%)

Source: doi:10.1101/2024.10.12.618001
